Numbered stars: 1 amine (or outer) side, 2 acyl side, 3 side chain; on linkers, the order of the positions; unused ones are H or OH. Bridge positions count the residues as written; N and C are the ends. Side chains are listed from the residue outwards. Ends that are not written are not given here. * marks the point of attachment. C20 diacid = O=C(O)CCCCCCCCCCCCCCCCCCC(=O)*; γGlu = O=C(O)[C@H](CCC(=O)[*:2])N[*:1]

T1: rat amylin receptor (rat calcitonin receptor + rat RAMP 3) (rat, UniProt P32214 25-516; Q9JJ73 23-147)
T1 construct: whole, on cells; Membranes prepared from transiently transfected BHK tk'ts 13 cells; also called rAmylin-R; rat amylin 3(a) receptor
T1 sequence (looked up) 1: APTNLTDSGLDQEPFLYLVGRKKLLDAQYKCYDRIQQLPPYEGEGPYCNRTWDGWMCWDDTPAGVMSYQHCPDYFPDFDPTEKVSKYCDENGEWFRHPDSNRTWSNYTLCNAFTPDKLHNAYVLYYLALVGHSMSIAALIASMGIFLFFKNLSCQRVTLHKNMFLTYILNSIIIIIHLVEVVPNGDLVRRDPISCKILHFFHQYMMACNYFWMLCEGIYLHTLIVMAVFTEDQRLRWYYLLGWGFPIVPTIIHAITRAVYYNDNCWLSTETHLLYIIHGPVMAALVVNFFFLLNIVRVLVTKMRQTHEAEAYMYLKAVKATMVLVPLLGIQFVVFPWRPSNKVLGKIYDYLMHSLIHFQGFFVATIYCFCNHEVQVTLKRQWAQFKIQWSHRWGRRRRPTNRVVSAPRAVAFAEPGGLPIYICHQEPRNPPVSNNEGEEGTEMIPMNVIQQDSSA
T1 sequence (looked up) 2: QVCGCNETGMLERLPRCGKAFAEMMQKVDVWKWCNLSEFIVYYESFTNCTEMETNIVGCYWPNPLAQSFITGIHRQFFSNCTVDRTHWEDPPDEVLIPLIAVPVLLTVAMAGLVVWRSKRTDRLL

T2: rat calcitonin receptor (rat, UniProt P32214 25-516)
T2 construct: whole, on cells; Membranes prepared from transiently transfected BHK tk'ts 13 cells; also called rCTR; rat calcitonin (a) receptor
T2 sequence (looked up): T1 sequence (looked up) 1

T3: human calcitonin receptor (human, UniProt P30988 25-474)
T3 construct: whole, on cells; Membranes from stably transfected BHK cells; also called hCTR; hCT
T3 sequence (looked up): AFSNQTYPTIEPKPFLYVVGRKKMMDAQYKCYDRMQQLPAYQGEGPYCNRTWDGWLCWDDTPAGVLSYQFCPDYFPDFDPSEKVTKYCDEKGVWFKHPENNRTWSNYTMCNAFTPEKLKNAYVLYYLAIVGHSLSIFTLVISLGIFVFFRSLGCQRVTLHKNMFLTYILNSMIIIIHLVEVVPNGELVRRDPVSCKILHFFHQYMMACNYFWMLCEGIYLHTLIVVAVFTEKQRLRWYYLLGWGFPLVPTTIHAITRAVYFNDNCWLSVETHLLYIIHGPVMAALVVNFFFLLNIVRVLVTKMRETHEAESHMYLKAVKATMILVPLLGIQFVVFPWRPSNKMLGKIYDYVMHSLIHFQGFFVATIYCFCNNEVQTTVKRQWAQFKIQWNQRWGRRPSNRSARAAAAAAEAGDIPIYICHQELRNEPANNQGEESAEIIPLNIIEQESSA

B1: N^-1-[(4S)-4-carboxy-4-(19-carboxynonadecanoylamino)butanoyl]-Gly[Arg1,His14,Arg17,Pro21,Pro27,His34]-h-amylin (peptide)
peptide: {C20 diacid-γGlu}-GRCNTATCATQRLAHFLRHSSPNFGAIPSSTNVGHNTY-NH2
modifications: disulfide 3-8
SMILES: CC[C@H](C)[C@H](NC(=O)[C@H](C)NC(=O)CNC(=O)[C@H](Cc1ccccc1)NC(=O)[C@H](CC(N)=O)NC(=O)[C@@H]1CCCN1C(=O)[C@H](CO)NC(=O)[C@H](CO)NC(=O)[C@H](Cc1c[nH]cn1)NC(=O)[C@H](CCCNC(=N)N)NC(=O)[C@H](CC(C)C)NC(=O)[C@H](Cc1ccccc1)NC(=O)[C@H](Cc1c[nH]cn1)NC(=O)[C@H](C)NC(=O)[C@H](CC(C)C)NC(=O)[C@H](CCCNC(=N)N)NC(=O)[C@H](CCC(N)=O)NC(=O)[C@@H](NC(=O)[C@H](C)NC(=O)[C@@H]1CSSC[C@H](NC(=O)[C@H](CCCNC(=N)N)NC(=O)CNC(=O)CC[C@H](NC(=O)CCCCCCCCCCCCCCCCCCC(=O)O)C(=O)O)C(=O)N[C@@H](CC(N)=O)C(=O)N[C@@H]([C@@H](C)O)C(=O)N[C@@H](C)C(=O)N[C@@H]([C@@H](C)O)C(=O)N1)[C@@H](C)O)C(=O)N1CCC[C@H]1C(=O)N[C@@H](CO)C(=O)N[C@@H](CO)C(=O)N[C@H](C(=O)N[C@@H](CC(N)=O)C(=O)N[C@H](C(=O)NCC(=O)N[C@@H](Cc1c[nH]cn1)C(=O)N[C@@H](CC(N)=O)C(=O)N[C@H](C(=O)N[C@@H](Cc1ccc(O)cc1)C(N)=O)[C@@H](C)O)C(C)C)[C@@H](C)O
notes: also called compound 100
B2: N^ε1-[(4S)-4-carboxy-4-[[(4S)-4-carboxy-4-(19-carboxynonadecanoylamino)butanoyl]amino]butanoyl]-[Glu14,Arg17,Pro21,Pro27,Pro34,Arg35]-h-amylin (peptide)
peptide: K([γGlu-γGlu-C20 diacid])CNTATCATQRLAEFLRHSSPNFGAIPSSTNVGPRTY-NH2
modifications: disulfide 2-7; N-terminus assumed
SMILES: CC[C@H](C)[C@H](NC(=O)[C@H](C)NC(=O)CNC(=O)[C@H](Cc1ccccc1)NC(=O)[C@H](CC(N)=O)NC(=O)[C@@H]1CCCN1C(=O)[C@H](CO)NC(=O)[C@H](CO)NC(=O)[C@H](Cc1c[nH]cn1)NC(=O)[C@H](CCCNC(=N)N)NC(=O)[C@H](CC(C)C)NC(=O)[C@H](Cc1ccccc1)NC(=O)[C@H](CCC(=O)O)NC(=O)[C@H](C)NC(=O)[C@H](CC(C)C)NC(=O)[C@H](CCCNC(=N)N)NC(=O)[C@H](CCC(N)=O)NC(=O)[C@@H](NC(=O)[C@H](C)NC(=O)[C@@H]1CSSC[C@H](NC(=O)[C@@H](N)CCCCNC(=O)CC[C@H](NC(=O)CC[C@H](NC(=O)CCCCCCCCCCCCCCCCCCC(=O)O)C(=O)O)C(=O)O)C(=O)N[C@@H](CC(N)=O)C(=O)N[C@@H]([C@@H](C)O)C(=O)N[C@@H](C)C(=O)N[C@@H]([C@@H](C)O)C(=O)N1)[C@@H](C)O)C(=O)N1CCC[C@H]1C(=O)N[C@@H](CO)C(=O)N[C@@H](CO)C(=O)N[C@H](C(=O)N[C@@H](CC(N)=O)C(=O)N[C@H](C(=O)NCC(=O)N1CCC[C@H]1C(=O)N[C@@H](CCCNC(=N)N)C(=O)N[C@H](C(=O)N[C@@H](Cc1ccc(O)cc1)C(N)=O)[C@@H](C)O)C(C)C)[C@@H](C)O
notes: also called compound 110
B3: N^ε1-[(4S)-4-carboxy-4-[[(4S)-4-carboxy-4-(19-carboxynonadecanoylamino)butanoyl]amino]butanoyl]-[Glu14,Arg17,Pro21,Pro27,Pro34,Phe37]-h-amylin (peptide)
peptide: K([γGlu-γGlu-C20 diacid])CNTATCATQRLAEFLRHSSPNFGAIPSSTNVGPNTF-NH2
modifications: disulfide 2-7; N-terminus assumed
SMILES: CC[C@H](C)[C@H](NC(=O)[C@H](C)NC(=O)CNC(=O)[C@H](Cc1ccccc1)NC(=O)[C@H](CC(N)=O)NC(=O)[C@@H]1CCCN1C(=O)[C@H](CO)NC(=O)[C@H](CO)NC(=O)[C@H](Cc1c[nH]cn1)NC(=O)[C@H](CCCNC(=N)N)NC(=O)[C@H](CC(C)C)NC(=O)[C@H](Cc1ccccc1)NC(=O)[C@H](CCC(=O)O)NC(=O)[C@H](C)NC(=O)[C@H](CC(C)C)NC(=O)[C@H](CCCNC(=N)N)NC(=O)[C@H](CCC(N)=O)NC(=O)[C@@H](NC(=O)[C@H](C)NC(=O)[C@@H]1CSSC[C@H](NC(=O)[C@@H](N)CCCCNC(=O)CC[C@H](NC(=O)CC[C@H](NC(=O)CCCCCCCCCCCCCCCCCCC(=O)O)C(=O)O)C(=O)O)C(=O)N[C@@H](CC(N)=O)C(=O)N[C@@H]([C@@H](C)O)C(=O)N[C@@H](C)C(=O)N[C@@H]([C@@H](C)O)C(=O)N1)[C@@H](C)O)C(=O)N1CCC[C@H]1C(=O)N[C@@H](CO)C(=O)N[C@@H](CO)C(=O)N[C@H](C(=O)N[C@@H](CC(N)=O)C(=O)N[C@H](C(=O)NCC(=O)N1CCC[C@H]1C(=O)N[C@@H](CC(N)=O)C(=O)N[C@H](C(=O)N[C@@H](Cc1ccccc1)C(N)=O)[C@@H](C)O)C(C)C)[C@@H](C)O
B4: N^ε1-[(4S)-4-carboxy-4-[[(4S)-4-carboxy-4-(19-carboxynonadecanoylamino)butanoyl]amino]butanoyl]-[Ser14,Arg17,Pro21,Pro27,Pro34,Glu35]-h-amylin (peptide)
peptide: K([γGlu-γGlu-C20 diacid])CNTATCATQRLASFLRHSSPNFGAIPSSTNVGPETY-NH2
modifications: disulfide 2-7; N-terminus assumed
SMILES: CC[C@H](C)[C@H](NC(=O)[C@H](C)NC(=O)CNC(=O)[C@H](Cc1ccccc1)NC(=O)[C@H](CC(N)=O)NC(=O)[C@@H]1CCCN1C(=O)[C@H](CO)NC(=O)[C@H](CO)NC(=O)[C@H](Cc1c[nH]cn1)NC(=O)[C@H](CCCNC(=N)N)NC(=O)[C@H](CC(C)C)NC(=O)[C@H](Cc1ccccc1)NC(=O)[C@H](CO)NC(=O)[C@H](C)NC(=O)[C@H](CC(C)C)NC(=O)[C@H](CCCNC(=N)N)NC(=O)[C@H](CCC(N)=O)NC(=O)[C@@H](NC(=O)[C@H](C)NC(=O)[C@@H]1CSSC[C@H](NC(=O)[C@@H](N)CCCCNC(=O)CC[C@H](NC(=O)CC[C@H](NC(=O)CCCCCCCCCCCCCCCCCCC(=O)O)C(=O)O)C(=O)O)C(=O)N[C@@H](CC(N)=O)C(=O)N[C@@H]([C@@H](C)O)C(=O)N[C@@H](C)C(=O)N[C@@H]([C@@H](C)O)C(=O)N1)[C@@H](C)O)C(=O)N1CCC[C@H]1C(=O)N[C@@H](CO)C(=O)N[C@@H](CO)C(=O)N[C@H](C(=O)N[C@@H](CC(N)=O)C(=O)N[C@H](C(=O)NCC(=O)N1CCC[C@H]1C(=O)N[C@@H](CCC(=O)O)C(=O)N[C@H](C(=O)N[C@@H](Cc1ccc(O)cc1)C(N)=O)[C@@H](C)O)C(C)C)[C@@H](C)O
notes: also called compound 120

The first test deals with T1, rat amylin receptor (rat calcitonin …). As to the kind of experiment: SPA competition vs 125I-rat amylin, membranes (Assay VI).
As to B1, the 50% inhibitory concentration (IC50) (commonly the concentration needed to halve the response being measured) stood at 11.2 nM.
Same read-out and setting: in the case of B2 it was 0.339 nM; in that of K([γGlu-γGlu-C20 diacid])CNTATCATQRLAEFLRHSSPNFGAILSSTPVGPETY-NH2 (disulfide 2-7), 0.449 nM.
Take B3: the IC50 was determined as 0.205 nM.
Consider K([γGlu-γGlu-C20 diacid])CNTATCATQRLAEFLRHSSPNFGAIPSSTNVGPHTY-NH2 (disulfide 2-7 (inferred)), for which the IC50 was 0.288 nM.
Regarding B4, the IC50 stood at 0.161 nM.

A further test concerns the target T2, rat calcitonin receptor. As to the kind of experiment: SPA competition vs 125I-calcitonin, membranes (Assay VIII).
For the molecule B1, the IC50 was determined as 311 nM.
Turning to B2, the IC50 stood at 38.3 nM.
Same read-out and setting: in the case of K([γGlu-γGlu-C20 diacid])CNTATCATQRLAEFLRHSSPNFGAILSSTPVGPETY-NH2 (disulfide 2-7) it was 33.5 nM.
Consider B3, for which the IC50 came out at 23.4 nM.
Same read-out and setting: for K([γGlu-γGlu-C20 diacid])CNTATCATQRLAEFLRHSSPNFGAIPSSTNVGPHTY-NH2 (disulfide 2-7 (inferred)) the value was 21 nM; for B4, 140 nM.

The target in a further test is T2, rat calcitonin receptor. As to the kind of experiment: ratio of IC50 on rat calcitonin receptor to IC50 on rat amylin receptor.
B1: the “Ratio rCT/rAmylin binding” value is 27.7.
Consider B2, for which the “Ratio rCT/rAmylin binding” value is 113.
Take K([γGlu-γGlu-C20 diacid])CNTATCATQRLAEFLRHSSPNFGAILSSTPVGPETY-NH2 (disulfide 2-7): the “Ratio rCT/rAmylin binding” value stood at 74.7.
On the same count and under the same terms, in the case of B3 it was 114; in that of K([γGlu-γGlu-C20 diacid])CNTATCATQRLAEFLRHSSPNFGAIPSSTNVGPHTY-NH2 (disulfide 2-7 (inferred)), 73.
The same measure, in the same setting: in the case of B4 it was 868.

In another test the target is T3, human calcitonin receptor. Description: ratio of IC50 on human calcitonin receptor to IC50 on human amylin receptor. Summed up:
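Competition binding by SPA with cell membranes (35 ng/μL) and SPA beads in 50 mM Hepes pH 7.4 with 1 mM CaCl2, 5 mM MgCl2, 0.1% OA and 0.02% Tween20. Incubated 120 min at 25 °C with shaking, then counted.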
For B1, the “Ratio hCT/hAmylin binding” value worked out at 65.3.
The same measure, in the same setting: in the case of B2 it was 53.6; in that of K([γGlu-γGlu-C20 diacid])CNTATCATQRLAEFLRHSSPNFGAILSSTPVGPETY-NH2 (disulfide 2-7), 22.6; in that of B3, 18.
As to K([γGlu-γGlu-C20 diacid])CNTATCATQRLAEFLRHSSPNFGAIPSSTNVGPHTY-NH2 (disulfide 2-7 (inferred)), the “Ratio hCT/hAmylin binding” value stood at 27.3.
B4: the “Ratio hCT/hAmylin binding” value was determined as 45.3.

The record behind these values is patent publication US20140087995A1 (published 2014).
